According to publication PMC11026464, “Local environment in biomolecular condensates modulates enzymatic activity across length scales” (Nature Communications, 2024):
Values belong to the molecule of their own block, whether it stands above or below them.

How the values were obtained:
[1] = target: Dbp1-NOX (LCD of Dbp1 from Saccharomyces cerevisiae, residues 1 to 155, fused to the N-terminus of NADH oxidase from Thermus thermophilus) (Saccharomyces cerevisiae | Thermus thermophilus) (UniProt P24784); assay: single-molecule mass photometry; 20 nM protein in low ionic strength buffer (20 mM NaCl), 25 °C, measured over 1 min; Refeyn OneMP
Dbp1-NOX = system: T1, Dbp1-NOX; assay: NADH absorbance decrease at […] nm, Michaelis-Menten fit; assay type: biochemical, Thermus thermophilus; conditions: 1 µM enzyme, two-phase micron-sized condensates (apparent, average of dilute and dense phase); 100 µM FAD, O2; 25 mM Tris, 20 mM NaCl, pH 7.5; NADH 50-200 µM
T1 construct: single fusion chain: Dbp1 LCD (1-155) at N-terminus of NOX; E. coli, heat shock and IMAC; dimer 79 kDa; forms condensates/nanoclusters at low salt; with ATP-dependent RNA helicase DBP1 (Saccharomyces cerevisiae)

[2] = target: the molecule itself; assay: single-molecule mass photometry; 20 nM protein in low ionic strength buffer (20 mM NaCl), 25 °C, measured over 1 min; Refeyn OneMP
purified protein = substrate: NC(=O)C1=CN([C@@H]2O[C@H](COP(=O)(O)OP(=O)(O)OC[C@H]3O[C@@H](n4cnc5c(N)ncnc54)[C@H](O)[C@@H]3O)[C@@H](O)[C@H]2O)C=CC1; assay: purified protein; assay type: biochemical, Thermus thermophilus; conditions: 1 µM enzyme, homogeneous, 100 µM FAD, O2, 25 mM Tris, 20 mM NaCl, pH 7.5, NADH 50-200 µM

stoichiometry N [1]: 2
Molecule: Dbp1-NOX (LCD of Dbp1 from Saccharomyces cerevisiae, residues 1 to 155, fused to the N-terminus of NADH oxidase from Thermus thermophilus) (from UniProt P24784 1-155) (enzyme)

Km (Dbp1-NOX): 89 ± 34 µM
Molecule: NC(=O)C1=CN([C@@H]2O[C@H](COP(=O)(O)OP(=O)(O)OC[C@H]3O[C@@H](n4cnc5c(N)ncnc54)[C@H](O)[C@@H]3O)[C@@H](O)[C@H]2O)C=CC1 [NADH]

B1: NADH oxidase from Thermus thermophilus (NOX) (enzyme)
chain: MEATLPVLDAKTAALKRRSIRRYRKDPVPEGLLREILEAALRAPSAWNLQPWRIVVVRDPATKRALREAAFGQAHVEEAPVVLVLYADLEDALAHLDEVIHPGVQGERREAQKQAIQRAFAAMGQEARKAWASGQSYILLGYLLLLLEAYGLGSVPMLGFDPERVRAILGLPSHAAIPALVALGYPAEEGYPSHRLPLERVVLWR
notes: NADH oxidase (NOX) from Thermus thermophilus; codon-optimised gene cloned into pET-15b; Purified by heat shock only, so it is not clear whether a His tag is on this protein; The dimer peak in mass photometry is printed as 45 kDa; also called unconjugated NOX; source: E. coli BL21-GOLD (DE3), purified (heat shock method)
stoichiometry N [2]: 2
Km (purified protein): 81 ± 36 µM
kcat (purified protein): 1.12 ± 0.21 s⁻¹
